Test [1] has as its target T1, murine ATP6V1B2 1-286aa truncated sequence (Mus musculus, UniProt P62814).
T1 construct: expressed in transfected cells; host or cells: 293 cells
In words: Co-immunoprecipitation of EGFP-tagged QD202 with Myc-tagged ATP6V1B2 1-286aa truncated sequence in 293 cells. Type of test: binding. Conditions: Myc antibody, immunoblotting. An excerpt: Expression plasmids including murine ATP6V1B2 full-length sequence, 1-286aa truncated sequence or 1-172aa truncated sequence with a Myc tag are respectively constructed; the amino acid sequence of the murine ATP6V1B2 full-length sequence was as set forth in SEQ ID NO. 8, the amino acid sequence of the murine ATP6V1B21-286aa was as set forth in SEQ ID NO. 10; the amino acid sequence of the murine ATP6V1B21-172aa as set forth in as SEQ ID NO. 11; and these plasmids were respectively called as an ATP6V1B2 full-length expression plasmid, an ATP6V1B21-286aa expression plasmid and an ATP6V1B21-172aa expression plasmid. Meanwhile, a QD202 expression plasmid with an EGFP tag was constructed. […]
Then a Protein G agarose bead was added to be bound to the Myc antibody, so as to precipitate the ATP6V1B2 full-length protein, the 1-286aa truncated sequence or the 1-172aa truncated sequence, and proteins which were bound to one another, and finally the proteins subjected to co-immunoprecipitation was detected by virtue of an immunoblotting method.
For orientation: Immunoblotting shows a protein as a band on a membrane.

For test [2], the system named is hippocampal CA1 pyramidal neurons. In words: Whole-cell patch-clamp recording of spontaneous excitatory postsynaptic current (sEPSC) in hippocampus brain slice. Type of test: cell-based, mouse. Conditions: sEPSC at -70 mV, perfusion for 5 min; 5 μM in Embodiment 3. As to the method:
0.1-0.15 ml of 20% ethyl carbamate was injected into the abdominal cavity of a C57 mouse of 2 to 3 months old for anesthesia; a head was quickly cut, and brain tissues were stripped and put into artificial cerebrospinal fluid (ACSF) ice-water mixed liquid into which mixed gas (95% O2 and 5% CO2) was introduced in advance, and stood for 2 min; the ACSF included the following components: […] of NaCl, […] of KCl, 0.12 mM of NaH2PO4, 0.25 mM of CaCl2), 0.12 mM of MgCl2, 25 mM of NaHCO3 and 11 mM of glucose. A hippocampus coronal brain slice of 350 μm was cut by a vibration slicer. The hippocampus coronal brain slice was placed into the ACSF at room temperature for more than 30 min for recovery, and then the brain slice was put into a record slot; continuous perfusing was performed at a speed of 2 to 2.5 ml/min by the ACSF into which the mixed gas was introduced; blind-binding sealing was performed on hippocampus CA1 pyramidal neuron under an Olympic BX51 upright microscope; whole-cell patch-clamp was performed by an Axon700B amplifier and a 1550B digital-to-analog converter; spontaneous excitatory postsynaptic current (sEPSC) of the pyramidal neuron was recorded by a voltage clamp under the clamp voltage of −70 mV; after recording for 5 min, synthetic polypeptides such as 5 μM QD202 or QD202 N′-1, C′-1 and C′-2 for 5 min; and then perfusing and flushing were performed for 10 min by the ACSF. The recorded data was analyzed by Minianalysis software. […]
(In general: The patch-clamp technique gives a direct electrical read-out from membranes.)

Test [3] deals with T2, ATP6V1B2 (Mus musculus, UniProt P62814). The test can be described thus: Co-immunoprecipitation in HEK 293 cells transfected with murine Atp6V1b2 expression plasmid with myc tag. To be noted: HEK 293 cell lysate, biotin antibody, immunoblotting. Further details: expressed in transfected cells; host or cells: HEK 293. It is filed as binding. The procedure:
(6) A murine Atp6V1b2 expression plasmid with a myc tag at the 3′ end was constructed; the plasmid was transfected in HEK 293 cells; the cells were collected after 2 days; and cell protein was extracted. The biotin antibody and protein G agarose beads were added into a cell lysis solution for co-immunoprecipitation^[1], and the protein was eluted by the protein loading buffer solution.
(7) SDS-PAGE protein electrophoresis gel was prepared, the concentration of lower-layer separation gel was 10%, and the concentration of upper-layer concentrated gel was 4%; the sample was added into a loading hole; and the protein was detected by an immunoblotting method, with the result shown in FIG. 6b.

Test [4] concerns the target T2, ATP6V1B2. The test can be described thus: Immunoprecipitation from hippocampus of mice given biotin-labeled polypeptide, with SDS-PAGE and protein mass spectrum identification. It is filed as binding. Also on record: from tissue; host or cells: mouse brain hippocampus. To be noted: biotin-labeled polypeptide 6.25 mg/kg through veins, hippocampus collected after 4 h, compared with disordered control QD201. The procedure:
(1) Polypeptide QD202 was synthesized according to the amino acid sequence as set forth in SEQ ID NO. 1, and a biotin label was added at the […] of the polypeptide; and the amino acid sequence of the QD202 was randomly disorganized, a disordered control QD201 (the amino acid sequence as set forth in SEQ ID NO. 7) was synthesized, and the biotin label was added at the […] of the polypeptide. The polypeptide QD202 and the QD201 were dissolved by PBS, and a storage solution is prepared with the concentration of 500 μM.
(2) The biotin-labeled QD202 and QD201 were respectively feed to 2 C57BL/6 mice of 8 months old through veins at the dosage of 6.25 mg/kg. The mice were anesthetized after 4 h, brain hippocampus tissues were collected, a lysis buffer solution was added, the tissues were crushed by mechanical grinding, and then supernatant was collected after centrifuging. The biotin antibody and Protein G agarose beads were added into the supernatant for immunoprecipitation, the test steps referred to Using Antibodies: A Laboratory Manual [J]. Science Press, 2002. The proteins were eluted by a protein loading buffer solution. […]

T2 sequence (P62814 whole entry): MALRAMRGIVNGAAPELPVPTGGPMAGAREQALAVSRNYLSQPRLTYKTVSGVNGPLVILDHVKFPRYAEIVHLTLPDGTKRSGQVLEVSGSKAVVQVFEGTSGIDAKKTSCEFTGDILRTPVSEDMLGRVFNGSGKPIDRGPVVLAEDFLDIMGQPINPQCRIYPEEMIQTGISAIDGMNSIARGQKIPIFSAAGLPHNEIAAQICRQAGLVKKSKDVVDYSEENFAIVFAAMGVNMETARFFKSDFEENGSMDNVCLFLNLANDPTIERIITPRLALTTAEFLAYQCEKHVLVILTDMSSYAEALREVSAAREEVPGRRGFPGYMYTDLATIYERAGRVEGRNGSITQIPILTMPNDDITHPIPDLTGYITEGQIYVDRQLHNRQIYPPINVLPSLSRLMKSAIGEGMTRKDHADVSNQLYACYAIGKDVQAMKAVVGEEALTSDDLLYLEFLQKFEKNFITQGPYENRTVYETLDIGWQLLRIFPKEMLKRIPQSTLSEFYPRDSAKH
T1 sequence (P62814 1-286): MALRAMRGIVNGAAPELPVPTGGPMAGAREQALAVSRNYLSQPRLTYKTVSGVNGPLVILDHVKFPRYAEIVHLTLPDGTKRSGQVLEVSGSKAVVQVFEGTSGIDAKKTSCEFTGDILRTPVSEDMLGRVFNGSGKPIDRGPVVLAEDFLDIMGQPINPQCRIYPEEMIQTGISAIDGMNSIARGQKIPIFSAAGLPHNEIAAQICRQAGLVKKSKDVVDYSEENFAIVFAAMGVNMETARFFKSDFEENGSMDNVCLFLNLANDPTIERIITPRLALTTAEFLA

Consider “QD202: polypeptide synthesized according to the amino acid sequence as set forth in SEQ ID NO. 1 (YGRKKRRQRRRSPVDVVCS; QD202)”, for which the “binding to ATP6V1B2 1-286aa truncated sequence by co-immunoprecipitation” value in test [1] is “only the full-length ATP6V1B2 protein can be combined”. Further, in test [2], the “excitatory postsynaptic current amplitude” value is listed as “no influence”, the “release frequency of excitatory postsynaptic current” value is “increasing the release frequency” and the “spontaneous excitatory synaptic transmitter release of hippocampal CA1 neurons” value was “can increase the spontaneous excitatory synaptic transmitter release”. The “binding to ATP6V1B2 protein by co-immunoprecipitation” value in test [3] is “specific binding between the QD202 and the ATP6V1B2 protein can be found”. For the same substance, in test [4], the “protein specifically bound to the polypeptide (mass spectrum identification)” value was “protein specifically bound to QD202 was ATP6V1B2”.

(Values after patent publication US20240343762A1, “USE OF PROTON PUMP MODULATOR IN PREPARING REAGENT” (SHANGHAI QUIETD BIOTECHNOLOGY CO. LTD., priority 2021, published 2024).)
